Data from patent US20140295512A1, “Ketol-Acid Reductoisomerases With Improved Performance Properties” (CALIFORNIA INSTITUTE OF TECHNOLOGY, priority 2011, published 2014).
Where “and” joins values, the source holds several entries; their conditions need not be identical. Equal values may be shown once. Read-outs that look alike come from different tables or passages of the source.

Tests used:
Assay type in all cases: biochemical
[1] = KARI enzyme assay on cell lysates with NADH and NADPH as cofactors; conditions: for NADH-Dependent Specific Activity: empty vector control subtracted
Experimental: In this example, different KARI enzymes (Table 7) were screened for their activity with NADH and NADPH as cofactor. The enzymes were expressed in an S. cerevisiae strain by means of 2 micron plasmids carrying the KARI genes under the control of the S. cerevisiae TDH3 promoter. The transformants were cultivated in shake flask fermentations as described below and samples were taken after 44 h, centrifuged at 4000×g for 10 mins at 4° C. and the cell pellets were stored at −80° C. until analysis. The pellets were lysed by bead beating and the lysates were analyzed by KARI activity assay as described below using NADH and NADPH as cofactors.
Patched cells (or single colonies) grown on YPD+G418 plates at 30° C. were mixed into 3 mL YP+12% dextrose+200 mM MES, pH 6.5+G418, in 14 mL culture tubes and incubated at 250 RPM, 30° C. for ˜24 hours. The cells from the cultures were used to inoculate YP+12% dextrose+200 mM MES, pH 6.5+G418, in non-baffled flasks with a vented grey screw-caps at OD600 0.01. The cultures were incubated at 250 RPM, 30° C. for 24 hours, diluted 1:3 and incubated for another 20 h at 250 RPM, 30° C. Samples for enzyme assay pellets and protein quantification pellets were taken from each shake flask, and cell-free supernatant was used to measure glucose levels in shake flasks.
The assay and no substrate control reactions were performed in triplicate for each sample. The following stock solutions were prepared: 1 M potassium phosphate, pH 7, 0.1 M MgCl2, 100 mM DTT, 25 mM NADH or NADPH, 200 mM 2-acetolactate. The 2-acetolactate was made fresh each time by mixing 50 μL Ethyl-2-acetoxy-2-methylacetoacetate (EAMAA) with 990 μL water. Gradually 260 μL of 2 N NaOH was added in 10 μL increments to the EAMAA water mixture. After each addition the sample was vortexed for 15 seconds, and the procedure repeated until the entire 260 μL of 2 N NaOH was added. Afterwards the solution was mixed on an orbital shaker for 20 min (Krampitz, 1957). KARI reaction buffer (100 μL per reaction) was prepared to the following concentrations: 250 mM potassium phosphate, pH 7, 10 mM MgCl2, 1 mM DTT, 0.2 mM NADH or NADPH, 10 mM 2-acetolactate. For the no substrate controls, the 2-acetolactate was substituted with water. 10 μL of each lysate were transferred into a 96 well half area assay plate. The reaction was started with 90 μL of reaction buffer to each well using a multichannel pipette. The samples were mixed immediately. The samples were read at 340 nm every 10 s for 5 min.

[2] = KARI assay of purified S. exigua KARI and variants with NADPH (Examples 6-9); conditions: for U/mg NADPH (specific activity): cofactor NADPH
Experimental: (§1) S. exigua KARI activity or activities of its variants were assayed kinetically by monitoring the decrease in NADPH or NADH concentration by measuring the change in absorbance at 340 nm. An assay buffer was prepared containing 100 mM potassium phosphate pH 7.0, 1 mM DTT, 2.5 mM (S)-2-acetolactate, and 10 mM MgCl2 (final concentrations in the 1-mL assay, accounting for dilution with enzyme and cofactor). Fifty μL purified enzyme and 930 μL of the assay buffer were placed into a 1-mL cuvette. The reaction was initiated by addition of 20 μL NADPH or NADH (200 μM final concentration) for a general activity assay. Michaelis-Menten constants of the cofactors were determined with varying concentrations of NADPH (200-12 μM final) or NADH (200-6 μM final).

[3] = KARI assay of purified S. exigua KARI and variants with NADH (Examples 6-9)
Experimental: as §1

Row | Molecule | Specific Activity with NADH/Specific Activity with NADPH [1] | NADH-Dependent Specific Activity [1] | kcat NADPH [2] | U/mg NADPH (specific activity) [2] | U/mg NADPH (specific activity) ([2]; listed as Se1_KARI (wt)) | U/mg NADPH (specific activity) ([2]; listed as Se1_KARI^his6) | kcat NADPH ([2]; listed as Se1_KARI (wt)) | kcat NADPH ([2]; listed as Se1_KARI^his6) | Km ([2]; read-out: Km for cofactor NADPH) | kcat NADH [3] | U/mg NADH (specific activity) ([3]; cofactor NADH) | kcat NADH ([3]; listed as Se1_KARI (wt)) | kcat/Km ratio NADH/NADPH (cofactor specificity) ([3]; listed as Se1_KARI (wt)) | kcat NADH ([3]; listed as Se1_KARI^his6) | kcat/Km ratio NADH/NADPH (cofactor specificity) ([3]; listed as Se1_KARI^his6) | Km ([3]; read-out: Km for cofactor NADH) | Ratio NADH/NADPH (U/mg) ([3]; specific activity ratio)
1 | Se1_KARI: Slackia exigua (ATCC 700122) ketol-acid reductoisomerase, wild type, SEQ ID NO: 2 (protein, listed as Slackia exigua) MSVKTKEKEMAVTILYEQDVDPKVIQGLKVGIIGYGSQGHAHALNLMDSGVDVRVGLREGSSSWKTAEEAGLKVTDMDTAAEEADVIMVLVPDEIQPKVYQEHIAAHLKAGNTLAFAHGFNIHYGYIVPPEDVNVIMCAPKGPGHIVRRQFTEGSGVPDLACVQQDATGNAWDIVLSYCWGVGGARSGIIKATFAEETEEDLFGEQAVLCGGLVELVKAGFETLTEAGYPPELAYFECYHEMKMIVDLMYESGIHFMNYSISNTAEYGEYYAGPKVINEQSREAMKEILKRIQDGSFAQEFVDDCNNGHKRLLEQREAINTHPIETTGAQIRSMFSWIKKED | 0.96 | 0.059 U/mg lysate | 0.80 s⁻¹ | 0.32 ± 0.03 U/mg | 0.32 U/mg | 0.32 U/mg and 0.32 ± 0.03 U/mg | 0.80 s⁻¹ | 0.8 s⁻¹ | < 1 µM | 0.40 s⁻¹ | 0.15 U/mg | 0.40 s⁻¹ | 0.08 | 0.4 s⁻¹ | 0.08 | 45 µM | 0.47
2 | E. coli IlvC: Escherichia coli ketol-acid reductoisomerase (ilvC), wild type (protein, UniProt P05793 2-491, looked up) Ketol-acid reductoisomerase …: ANYFNTLNLRQQLAQLGKCRFMGRDEFADGASYLQGKKVVIVGCGAQGLNQGLNMRDSGLDISYALRKEAIAEKRASWRKATENGFKVGTYEELIPQADLVINLTPDKQHSDVVRTVQPLMKDGAALGYSHGFNIVEVGEQIRKDITVVMVAPKCPGTEVREEYKRGFGVPTLIAVHPENDPKGEGMAIAKAWAAATGGHRAGVLESSFVAEVKSDLMGEQTILCGMLQAGSLLCFDKLVEEGTDPAYAEKLIQFGWETITEALKQGGITLMMDRLSNPAKLRAYALSEQLKEIMAPLFQKHMDDIISGEFSSGMMADWANDDKKLLTWREETGKTAFETAPQYEGKIGEQEYFDKGVLMIAMVKAGVELAFETMVDSGIIEESAYYESLHELPLIANTIARKRLYEMNVVISDTAEYGNYLFSYACVPLLKPFMAELQPGDLGKAIPEGAVDNGQLRDVNEAIRSHAIEQVGKKLRGYMTDMKRIAVAG | 0.175 | 0.04 U/mg lysate | – | – | – | – | – | – | – | – | – | – | – | – | – | – | –
